Tests used:
Assay in all cases: MTAP substrate assay, coupled spectrophotometric (adenine, xanthine oxidase)
Assay type in all cases: biochemical, human
Settings in all cases: other: substrate of MTAP, 37° C.
[1] = substrate: COc1ccc(CSC[C@H]2O[C@@H](n3cnc4c(N)ncnc43)[C@H](O)[C@@H]2O)cc1
Experimental: (§1) An enzymatic assay to determine the activity of MTAP against a given substrate was performed. Human MTAP containing an N-terminal six-histidine tag was expressed in E. coli BL21 DE3 cells. The protein was purified to homogeneity by Ni2+ affinity chromatography. Enzymatic activity was measured using a coupled spectrophotometric assay designed to monitor the reaction product adenine (Savarese, T. M., Crabtree, G. W., and Parks, R. E. Jr., (1980) Biochem. Pharmacol. 30, 189-199). Various concentrations of the indicated 5′-deoxymethylthio adenosine (MTA) or substrate were incubated in assay buffer (40 mM potassium phosphate buffer, 1 mM, and DTT 0.8 units/ml xanthine oxidase coupling enzyme) for 5 minutes at 37° C. The reaction was initiated by the addition of MTAP. The exact concentration of enzyme used varied for each substrate tested and ranged from 2 nM to 500 nM. Activity as a function of enzyme concentration was determined for each substrate tested to ensure that the appropriate enzyme concentration was used. Activity was detected by continuous monitoring of absorbance at 305 nm for 10 minutes (ΔE=15,500 M^−1).
(§2) Library compounds (10 and 50 uM) were tested using the assay described above with 2 nM MTAP enzyme. The resultant initial velocities are reported as a percentage of the initial velocity observed when MTA is the substrate. MTA controls, 10 and 50 uM concentrations, were run on each plate alongside the library compounds.

[2] = substrate: COc1ccc(SC[C@H]2O[C@@H](n3cnc4c(N)ncnc43)[C@H](O)[C@@H]2O)cc1
Experimental: as §1, §2

[3] = substrate: Nc1ncnc2c1ncn2[C@@H]1O[C@H](CNCCc2ccccn2)[C@@H](O)[C@H]1O
Experimental: as §1, §2

[4] = substrate: Nc1ncnc2c1ncn2[C@@H]1O[C@H](CSc2ccncc2)[C@@H](O)[C@H]1O
Experimental: as §1, §2

[5] = substrate: COc1ccccc1SC[C@H]1O[C@@H](n2cnc3c(N)ncnc32)[C@H](O)[C@@H]1O
Experimental: as §1, §2

[6] = substrate: Cc1ccccc1SC[C@H]1O[C@@H](n2cnc3c(N)ncnc32)[C@H](O)[C@@H]1O
Experimental: as §1, §2

[7] = substrate: CC(C)CCSC[C@H]1O[C@@H](n2cnc3c(N)ncnc32)[C@H](O)[C@@H]1O
Experimental: as §1, §2

[8] = substrate: Nc1ncnc2c1ncn2[C@@H]1O[C@H](CSc2ccccc2)[C@@H](O)[C@H]1O
Experimental: as §1, §2

[9] = substrate: CCN(C)C(=O)[C@H]1O[C@@H](n2cnc3c(N)ncnc32)[C@H](O)[C@@H]1O
Experimental: as §1, §2

[10] = substrate: Cc1cccc(CSC[C@H]2O[C@@H](n3cnc4c(N)ncnc43)[C@H](O)[C@@H]2O)c1
Experimental: as §1, §2

[11] = substrate: COC[C@H]1O[C@@H](n2cnc3c(N)ncnc32)[C@H](O)[C@@H]1O
Experimental: as §1, §2

[12] = substrate: Nc1ncnc2c1ncn2[C@@H]1O[C@H](CSc2ccccn2)[C@@H](O)[C@H]1O
Experimental: as §1, §2

[13] = substrate: Nc1ncnc2c1ncn2[C@@H]1O[C@H](CSCc2cccs2)[C@@H](O)[C@H]1O
Experimental: as §1, §2

[14] = substrate: Nc1ncnc2c1ncn2[C@@H]1O[C@H](CSCc2ccccc2)[C@@H](O)[C@H]1O
Experimental: as §1, §2

[15] = substrate: CC(C)(C)SC[C@H]1O[C@@H](n2cnc3c(N)ncnc32)[C@H](O)[C@@H]1O
Experimental: as §1, §2

[16] = substrate: Cc1cccc(SC[C@H]2O[C@@H](n3cnc4c(N)ncnc43)[C@H](O)[C@@H]2O)c1
Experimental: as §1, §2

[17] = substrate: COc1ccc(OC[C@H]2O[C@@H](n3cnc4c(N)ncnc43)[C@H](O)[C@@H]2O)cc1
Experimental: as §1, §2

[18] = substrate: Nc1ncnc2c1ncn2[C@@H]1O[C@H](CSCc2ccc(Cl)cc2)[C@@H](O)[C@H]1O
Experimental: as §1, §2

[19] = substrate: CSC[C@@H]1C[C@@H](O)[C@H](n2cnc3c(N)ncnc32)O1
Experimental: as §1, §2

B1: Human MTAP (Homo sapiens) (protein)
chain: MASGTTTTAVKIGIIGGTGLDDPEILEGRTEKYVDTPFGKPSDALILGKIKNVDCVLLARHGRQHTIMPSKVNYQANIWALKEEGCTHVIVTTACGSLREEIQPGDIVIIDQFIDRTTMRPQSFYDGSHSCARGVCHIPMAEPFCPKTREVLIETAKKLGLRCHSKGTMVTIEGPRFSSRAESFMFRTWGADVINMTTVPEVVLAKEAGICYASIAMATDYDCWKEHEEAVSVDRVLKTLKENANKAKSLLLTTIPQIGSTEWSETLHNLKNMAQFSVLLPRH
notes: six-histidine tag (His6) (N); made in house; host or cells: E. coli BL21 DE3
Km [1]: 3.7 µM
kcat [1]: 3.8 s⁻¹
Km [2]: 7 µM
kcat [2]: 0.8 s⁻¹
Km [3]: 1300 µM
kcat [3]: 0.018 s⁻¹
Km [4]: 0.88 µM
kcat [4]: 0.23 s⁻¹
Km [5]: 13 µM
kcat [5]: 0.13 s⁻¹
Km [6]: 5.6 µM
kcat [6]: 0.175 s⁻¹
Km [7]: 2.8 µM
kcat [7]: 5.5 s⁻¹
Km [8]: 3 µM
kcat [8]: 1.5 s⁻¹
Km [9]: 300 µM
kcat [9]: 0.8 s⁻¹
Km [10]: 4 µM
kcat [10]: 1.82 s⁻¹
Km [11]: 250 µM
kcat [11]: 0.006 s⁻¹
Km [12]: 5.2 µM
kcat [12]: 3.44 s⁻¹
Km [13]: 6 µM
kcat [13]: 4.6 s⁻¹
Km [14]: 4.65 µM
kcat [14]: 2.5 s⁻¹
Km [15]: 17 µM
kcat [15]: 0.85 s⁻¹
Km [16]: 2 µM
kcat [16]: 2.4 s⁻¹
Km [17]: 10 µM
kcat [17]: 0.54 s⁻¹
Km [18]: 3.9 µM
kcat [18]: 3.3 s⁻¹
Km [19]: 3.9 µM
kcat [19]: 0.004 s⁻¹
